B1: PR (WT) (dsDNA)
DNA 1: GCGTGTTGACTATTTTACCTCTGGCGGTGATAATGGTTGCATGTACTAAGGAGGTTGTATGGAACAACGCA
DNA 2: TGCGTTGTTCCATACAACCTCCTTAGTACATGCAACCATTATCACCGCCAGAGGTAAAATAGTCAACACGC
modifications: 5'-C6-amino linker
B2: P1 galP1+P2-P3+ (dsDNA)
DNA 1: TTTTCGCATCTTTTCGTTGCTATGGTTATTTCATACCATAAGCCTAATGGAGCGAATTATGAG
DNA 2: CTCATAATTCGCTCCATTAGGCTTATGGTATGAAATAACCATAGCAACGAAAAGATGCGAAAA
modifications: 5'-C6-amino linker

Molecular target: RNA polymerase holoenzyme with sigma70 Q437A (Escherichia coli, UniProt P00579;P0A7Z4;P0A8V2;P0A8T7;P0A800 1-613;1-329;1-1342;1-1407;2-91, Q437A)
Assay: fluorescence anisotropy

| Binder | Kd |
| --- | --- |
| B1 | 14.9 nM |
| B2 | 0.76 ± 0.1 nM |

Reference: PMC3592454
